From patent US20240002795A1 (published 2024)
Values belong to the binder of their own block, whether it stands above or below them.

Key:
Assay in all cases: activation reporter or marker
[1] = biological target: T1, RET M918T peptide on HLA-DPA1*01:03 / HLA-DPB1*04:01 (human)
T1 peptide: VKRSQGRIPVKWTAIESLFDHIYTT

[2] = biological target: T2, RET wild type peptide on HLA-DPA1*01:03 / HLA-DPB1*04:01 (human)
T2 peptide: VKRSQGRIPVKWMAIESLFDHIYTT

[3] = biological target: T3, RET M918T peptide on HLA-DPA1*01:03 / HLA-DPB1*04:02 (human)
T3 peptide: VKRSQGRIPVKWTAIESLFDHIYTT

[4] = biological target: T4, RET wild type peptide on HLA-DPA1*01:03 / HLA-DPB1*04:02 (human)
T4 peptide: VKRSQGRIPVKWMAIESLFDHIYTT

binding result [1]: recognises
binding result [2]: no recognition
binding result [3]: recognises
binding result [4]: no recognition
B1: TCR-ID-2 (TCR, V domains shown)
Valpha: AQKITQTQPGMFVQEKEAVTLDCTYDTSDQSYGLFWYKQPSSGEMIFLIYQGSYDEQNATEGRYSLNFQKARKSANLVISASQLGDSAMYFCAMREGDGDDMRFGAGTRLTVKP
Vbeta: EPEVTQTPSHQVTQMGQEVILRCVPISNHLYFYWYRQILGQKVEFLVSFYNNEISEKSEIFDDQFSVERPDGSNFTLKIRSTKLEDSAMYFCASSSQIQTVMNTEAFFGQGTRLTVV

binding result [1]: recognises
binding result [2]: no recognition
binding result [3]: recognises
binding result [4]: no recognition
B2: TCR-ID-1 (TCR, V domains shown)
Valpha: GNSVTQMEGPVTLSEEAFLTINCTYTATGYPSLFWYVQYPGEGLQLLLKATKADDKGSNKGFEATYRKETTSFHLEKGSVQVSDSAVYFCALSENAGNQFYFGTGTSLTVIP
Vbeta: NAGVTQTPKFQVLKTGQSMTLQCAQDMNHEYMSWYRQDPGMGLRLIHYSVGAGITDQGEVPNGYNVSRSTTEDFPLRLLSAAPSQTSVYFCASSRGNTQYFGPGTRLTVL

binding result [1]: recognises
binding result [2]: no recognition
binding result [3]: recognises
B3: TCR-ID-3 (TCR, V domains shown)
Valpha: DQQVKQNSPSLSVQEGRISILNCDYTNSMFDYFLWYKKYPAEGPTFLISISSIKDKNEDGRFTVFLNKSAKHLSLHIVPSQPGDSAVYFCAASGHGGSQGNLIFGKGTKLSVKP
Vbeta: GAGVSQSPRYKVAKRGQDVALRCDPISGHVSLFWYQQALGQGPEFLTYFQNEAQLDKSGLPSDRFFAERPEGSVSTLKIQRTQQEDSAVYLCASSLRFLGQGSYEQYFGPGTRLTVT
